Square brackets hold non-standard residues; d marks the D form. Peptide text beside a SMILES is read from it. * marks the point of attachment. Oic = O=C(O)[C@@H]1C[C@@H]2CCCC[C@@H]2N1; Cha = N[C@@H](CC1CCCCC1)C(=O)O; Tle = CC(C)(C)[C@H](N)C(=O)O; Nicotinoyl = O=C(c1cccnc1)*; Acm = CC(=O)NC*
Key:
[1] = MultiTox-Fluor Multiplex Cytotoxicity Assay, RAW 264.7 cells; format: cell-based; details: mouse, 24 h co-culture, read-out: LD50, RAW cells
Protocol: (§1) Experiments were carried out using MultiTox-Fluor Multiplex Cytotoxicity Assay (Promega Corp., Madison, Wis.) as previously described. This assay simultaneously measures the number of live and dead cells in culture wells based on the activity of two proteases, one a marker of cell viability, and the other a marker of cytotoxicity, which yield products with different excitation and emission spectra. Briefly, for cytotoxicity experiments murine LCC (or RAW 264.7) cells were plated in a 96-well plate at a density of 1×10^4 cells/well in a total volume of 50 μl of culture media and treated with various concentrations of tested peptides (50 μl of 0-400 μM peptides in culture media). Cells' viability was assessed 24 h later by MultiTox-Fluor Multiplex Cytotoxicity Assay (incubation time 1 h). For cell viability experiments, LCC cells were plated in a 96-well plate at a density of 5×10^3 cells/well in a total volume of 50 μl of culture media and treated with various concentrations of tested peptide (50 μl of 0-200 μM peptide in culture media) for 1 hour prior to 0, 2, 4 Gy irradiation. Cell viability was assessed 72 h later by MultiTox-Fluor Multiplex Cytotoxicity Assay (incubation time 1 h). All experiments were carried out in triplicates.

[2] = MultiTox-Fluor Multiplex Cytotoxicity Assay, LLC cells; format: cell-based, murine; details: mouse, Lewis lung carcinoma (LLC) cells; 24 h co-culture; read-out: LD50, LLC cells
Protocol: as §1

[3] = Observation of toxicity during the in vivo mouse studies; design: species or system C57BL/6 mice; details: 25 mg/kg IP
Protocol: Animal experiments. C57BL/6 gnotobiotic mice (8 weeks old) were obtained from the UCLA AALAC accredited Department of Radiation Oncology Facility and intravenously injected with 5×10^5 cells of syngeneic LLC. Various treatments were initiated 4 days later, after cancer engraftment. In general, each animal received intraperitoneally a total of 500 μg (˜25 mg/kg) of peptide (or equimolar amount of nicotinamide) in 4 daily doses 60 min before local thoracic irradiation (0 or 4 Gy, total dose: 4.4=16 Gy) that was delivered using an Atomic Energy of Canada cesium gamma irradiator with a dose rate of approximately 0.6 Gy/min with the rest of the body shielded. Prior to irradiation animals were anesthetized by intraperitoneal injection of ketamine/xylazine mixture. Animals were sacrificed on the 14th day of the experiment and lung tumor nodules were counted. All experiments were approved by the UCLA Animal Care and Use Committee and conformed to local and national guidelines.
C57BL/6 mice (8 weeks old) were injected subcutaneously with 1.0×10^6 cells of syngeneic LLC (leg). After 10 days, palpable tumors of approximately 5 mm diameter appeared and treatment was initiated. […] Tumor size was assessed every two days and animals sacrificed as necessary according to the UCLA Animal Care guidelines.

[4] = target: rhEphA2 (Homo sapiens, UniProt P29317); assay: SPR binding to immobilized rhEphA2 (Biacore 3000); design: purchased R&D Systems, Inc., Minneapolis, Minn
Protocol: (§2) Binding to selected ephrin receptors was measured by surface plasmon resonance on a Biacore3000 instrument. Commercially available ephrin receptors: EphA2, EphB2 and EphB4 (R&D Systems) were immobilized on a CM-5 chip by amine coupling and tested peptides were passed over a chip surface as analytes.
(§3) Binding studies. Binding studies were performed by surface plasmon resonance (SPR) on a BIAcore 3000 system (BiaCore AB, Piscataway, N.J.). BIAcore CM5 sensor chips were utilized in all experiments. Binding studies were performed in HBS-EP running buffer (pH=7.4) containing 10 mM HEPES, 150 mM NaCl, 3 mM EDTA, and 0.005% polysorbate 20. Commercially available ephrin receptors: EphA2, EphB2 and EphB4 (R&D Systems, Inc., Minneapolis, Minn.) were immobilized on a CM5 sensor chip using the amine coupling method. The chip was activated by mixing 400 mM N-ethyl-N-(3-dimethylaminopropyl)-carbodiimide hydrochloride and 100 mM N-hydroxysuccinimide. Residual reactive groups on the chip surface were blocked using 1.0 M ethanolamine/HCl (pH=8.5). The flow cell-1 chip, which served as a control, lacked immobilized protein but was treated with N-ethyl-N-(3-dimethylaminopropyl)-carbodiimide hydrochloride, N hydroxysuccinimide, and ethanolamine/HCl. Binding signals were corrected for nonspecific binding by subtracting the flow cell-1 signal (blank surface). To regenerate chip surfaces, bound ligands were removed with 10 mM HCl. Data were analyzed with BIAevaluation 4.1 software (Biacore, Piscataway, N.J.).

[5] = target: rhEphB2/Fc (Homo sapiens, UniProt P29323); assay: SPR binding to immobilized rhEphB2/Fc (Biacore 3000); design: Fc; purchased R&D Systems, Inc., Minneapolis, Minn
Protocol: as §2, §3

CC(=O)NCSC[C@H](NC(=O)[C@H](CC1CCCCC1)NC(=O)[C@H](CC1CCCCC1)NC(=O)[C@@H](CCCCNC(=O)c1cccnc1)NC(=O)[C@@H](N)Cc1ccc(O)cc1)C(=O)N[C@H](C(=O)N[C@@H](CC1CCCCC1)C(=O)N1[C@H](C(=O)N[C@H](CCCNC(=N)N)C(=O)N[C@@H](Cc2c[nH]cn2)C(=O)N[C@@H](CCCNC(=N)N)C(=O)N[C@H](C(=O)N[C@@H](CC2CCCCC2)C(=O)N[C@@H](CSCNC(C)=O)C(=O)N[C@H](CCCCN)C(N)=O)[C@@H](C)O)C[C@@H]2CCCC[C@@H]21)C(C)(C)C [AzV36-NicL, YkNic-Cha-Cha-Cam-Tle-Cha-Oic-rHRT-Cha-Cam-k-CONH] (H-Y[dK](Nicotinoyl)[Cha][Cha]C(Acm)[Tle][Cha][Oic][dR]HRT[Cha]C(Acm)[dK]-NH2)
CC50 at 24 h [1]: 10.3 ± 0.78 µM
CC50 at 24 h [2]: 17 ± 2.84 µM
toxic effect of the injections in vivo [3]: no obvious toxic effect
Kd [4]: 0.0139 ± 0.0029 µM
Kd [5]: 0.0143 ± 0.0033 µM

— patent publication US8716246B2, “Azuvirin peptides” (The Regents of the University of California, priority 2011, dated 2014)
